How the values were obtained:
Nb32-Fc = Nb32-Fc (camel); assay: SPR
Nb14-Fc = Nb14-Fc (camel); assay: SPR

B1: HSV-1 gD (aa1-275) with C-terminal His tag (domain or fragment)
chain: KYALADASLKMADPNRFRGKDLPVLDQLTDPPGVRRVYHIQAGLPDPFQPPSLPITVYYAVLERACRSVLLNAPSEAPQIVRGASEDVRKQPYNLTIAWFRMGGNCAIPITVMEYTECSYNKSLGACPIRTQPRWNYYDSFSAVSEDNLGFLMHAPAFETAGTYLRLVKINDWTEITQFILEHRAKGSCKYALPLRIPPSACLSPQAYQQGVTVDSIGMLPRFIPENQRTVAVYSLKIAGWHGPKAPYTSTLLPPELSETPNATQPELAPEDPED
Nb32-Fc
  Kd: 0.0367 nM
Nb14-Fc
  Kd: 1.14 nM

B2: HSV-2 gD (aa1-275) with C-terminal His tag (domain or fragment)
chain: KYALADPSLKMADPNRFRGKNLPVLDQLTDPPGVKRVYHIQPSLEDPFQPPSIPITVYYAVLERACRSVLLHAPSEAPQIVRGASDEARKHTYNLTIAWYRMGDNCAIPITVMEYTECPYNKSLGVCPIRTQPRWSYYDSFSAVSEDNLGFLMHAPAFETAGTYLRLVKINDWTEITQFILEHRARASCKYALPLRIPPAACLTSKAYQQGVTVDSIGMLPRFIPENQRTVALYSLKIAGWHGPKPPYTSTLLPPELSDTTNATQPELVPEDPED
Nb32-Fc
  Kd: 0.0434 nM
Nb14-Fc
  Kd: 0.0831 nM
